Data taken from patent US10562947B2, “Compositions and methods for preventing or treating diseases, conditions or processes characterized by aberrant fibroblast proliferation and extracellular matrix deposition” (MOERAE MATRIX, INC., priority 2011, dated 2020).

Assays:
Assay in all cases: Kinase Profiling Assay
Format in all cases: biochemical
Conditions in all cases: 100 μM peptide
[1] = molecular target: T1, SAPK4(h) (Homo sapiens, UniProt O15264)
T1 sequence (O15264 1-365): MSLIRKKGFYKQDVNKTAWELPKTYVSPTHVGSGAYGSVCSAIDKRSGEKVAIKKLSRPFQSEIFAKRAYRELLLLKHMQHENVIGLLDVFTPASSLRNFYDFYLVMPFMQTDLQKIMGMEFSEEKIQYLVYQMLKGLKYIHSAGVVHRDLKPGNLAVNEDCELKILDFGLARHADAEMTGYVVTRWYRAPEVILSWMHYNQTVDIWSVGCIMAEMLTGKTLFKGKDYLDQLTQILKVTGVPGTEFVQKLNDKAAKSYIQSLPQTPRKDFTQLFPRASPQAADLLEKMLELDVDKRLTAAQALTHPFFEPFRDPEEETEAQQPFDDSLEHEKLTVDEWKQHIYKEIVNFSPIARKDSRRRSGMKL
Protocol: (§1) Every kinase activity measurement was conducted in duplicate.
(§2) In addition to determining the IC50 of the compound, the specificity of MK2 inhibitory peptides was assessed by examining activities of all 266 human kinases available for testing in the Millipore kinase profiling service (Table 1).

[2] = molecular target: T2, ASK1(h) (Homo sapiens, UniProt Q99683)
T2 sequence (Q99683 1-1374): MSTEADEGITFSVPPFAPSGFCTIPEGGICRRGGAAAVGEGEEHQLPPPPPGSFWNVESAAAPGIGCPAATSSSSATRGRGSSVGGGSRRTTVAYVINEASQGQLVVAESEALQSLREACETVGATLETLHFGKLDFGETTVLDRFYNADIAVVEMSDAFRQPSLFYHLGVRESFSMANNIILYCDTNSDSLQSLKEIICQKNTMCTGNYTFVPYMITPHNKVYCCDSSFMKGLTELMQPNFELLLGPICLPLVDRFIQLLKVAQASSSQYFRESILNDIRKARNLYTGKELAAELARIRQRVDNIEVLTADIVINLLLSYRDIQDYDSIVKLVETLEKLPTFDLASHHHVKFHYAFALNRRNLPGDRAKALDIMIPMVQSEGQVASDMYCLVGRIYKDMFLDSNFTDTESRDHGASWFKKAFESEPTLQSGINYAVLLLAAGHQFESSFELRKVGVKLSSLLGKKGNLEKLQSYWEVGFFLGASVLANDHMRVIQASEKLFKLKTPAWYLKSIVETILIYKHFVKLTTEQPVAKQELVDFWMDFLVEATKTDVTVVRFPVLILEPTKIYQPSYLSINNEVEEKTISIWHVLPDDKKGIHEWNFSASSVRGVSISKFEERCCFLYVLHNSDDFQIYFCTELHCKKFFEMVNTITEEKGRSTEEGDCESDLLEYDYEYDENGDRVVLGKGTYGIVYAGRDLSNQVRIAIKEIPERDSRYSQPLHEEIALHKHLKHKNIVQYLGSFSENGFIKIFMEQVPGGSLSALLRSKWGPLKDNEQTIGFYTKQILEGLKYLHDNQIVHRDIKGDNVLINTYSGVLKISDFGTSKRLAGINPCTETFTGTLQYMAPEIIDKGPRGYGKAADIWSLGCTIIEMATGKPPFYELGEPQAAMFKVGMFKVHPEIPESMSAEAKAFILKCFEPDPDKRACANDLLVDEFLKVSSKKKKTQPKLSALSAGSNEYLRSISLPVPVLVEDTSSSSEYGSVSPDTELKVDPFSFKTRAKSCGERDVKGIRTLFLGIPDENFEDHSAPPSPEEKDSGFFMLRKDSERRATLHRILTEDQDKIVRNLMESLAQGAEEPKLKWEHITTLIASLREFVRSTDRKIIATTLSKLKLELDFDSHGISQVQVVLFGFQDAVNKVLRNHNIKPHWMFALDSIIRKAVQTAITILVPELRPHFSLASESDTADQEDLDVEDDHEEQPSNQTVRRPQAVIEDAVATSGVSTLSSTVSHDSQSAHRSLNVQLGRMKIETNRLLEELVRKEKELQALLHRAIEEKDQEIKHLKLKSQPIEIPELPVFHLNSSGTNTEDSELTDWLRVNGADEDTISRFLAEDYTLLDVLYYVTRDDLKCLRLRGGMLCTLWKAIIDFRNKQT
Protocol: as §1, §2

[3] = molecular target: KDR(h) (Homo sapiens, UniProt P35968)
Sequence of KDR(h) (P35968 20-1356): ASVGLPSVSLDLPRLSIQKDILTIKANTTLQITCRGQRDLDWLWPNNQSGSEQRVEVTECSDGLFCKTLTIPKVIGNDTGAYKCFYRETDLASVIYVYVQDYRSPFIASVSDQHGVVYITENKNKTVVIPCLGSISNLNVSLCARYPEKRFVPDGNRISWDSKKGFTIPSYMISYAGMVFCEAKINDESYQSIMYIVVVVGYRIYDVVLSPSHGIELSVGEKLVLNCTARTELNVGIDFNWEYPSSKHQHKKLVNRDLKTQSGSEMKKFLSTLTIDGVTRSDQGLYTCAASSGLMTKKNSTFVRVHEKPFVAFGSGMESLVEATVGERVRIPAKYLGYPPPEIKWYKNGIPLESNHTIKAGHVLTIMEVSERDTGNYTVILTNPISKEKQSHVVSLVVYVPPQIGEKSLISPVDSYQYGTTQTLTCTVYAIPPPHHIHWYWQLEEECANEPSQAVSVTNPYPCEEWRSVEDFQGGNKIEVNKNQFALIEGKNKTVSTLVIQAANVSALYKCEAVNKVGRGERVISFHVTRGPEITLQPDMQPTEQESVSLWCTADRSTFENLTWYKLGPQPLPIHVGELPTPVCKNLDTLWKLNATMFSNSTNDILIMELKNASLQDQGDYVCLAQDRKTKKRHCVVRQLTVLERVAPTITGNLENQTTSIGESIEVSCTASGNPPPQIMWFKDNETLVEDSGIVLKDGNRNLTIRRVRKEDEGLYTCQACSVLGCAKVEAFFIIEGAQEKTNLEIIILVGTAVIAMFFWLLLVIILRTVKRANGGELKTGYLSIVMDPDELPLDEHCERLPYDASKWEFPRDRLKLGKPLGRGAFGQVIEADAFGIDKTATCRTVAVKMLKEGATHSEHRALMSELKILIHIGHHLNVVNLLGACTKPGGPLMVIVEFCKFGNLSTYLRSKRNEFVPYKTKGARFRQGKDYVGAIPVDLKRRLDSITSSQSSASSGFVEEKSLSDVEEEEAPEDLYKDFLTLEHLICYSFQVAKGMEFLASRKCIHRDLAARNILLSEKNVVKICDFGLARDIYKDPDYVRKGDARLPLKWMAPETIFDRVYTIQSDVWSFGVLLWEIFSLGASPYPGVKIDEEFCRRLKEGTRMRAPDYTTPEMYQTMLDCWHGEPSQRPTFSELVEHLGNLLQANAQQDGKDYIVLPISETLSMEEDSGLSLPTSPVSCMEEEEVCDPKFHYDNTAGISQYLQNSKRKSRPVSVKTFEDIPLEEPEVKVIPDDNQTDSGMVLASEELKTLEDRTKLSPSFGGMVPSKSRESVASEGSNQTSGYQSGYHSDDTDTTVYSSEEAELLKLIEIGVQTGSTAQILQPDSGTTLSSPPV
Protocol: as §1, §2

[4] = molecular target: T3, DMPK(h) (Homo sapiens, UniProt Q09013)
T3 sequence (Q09013 1-629): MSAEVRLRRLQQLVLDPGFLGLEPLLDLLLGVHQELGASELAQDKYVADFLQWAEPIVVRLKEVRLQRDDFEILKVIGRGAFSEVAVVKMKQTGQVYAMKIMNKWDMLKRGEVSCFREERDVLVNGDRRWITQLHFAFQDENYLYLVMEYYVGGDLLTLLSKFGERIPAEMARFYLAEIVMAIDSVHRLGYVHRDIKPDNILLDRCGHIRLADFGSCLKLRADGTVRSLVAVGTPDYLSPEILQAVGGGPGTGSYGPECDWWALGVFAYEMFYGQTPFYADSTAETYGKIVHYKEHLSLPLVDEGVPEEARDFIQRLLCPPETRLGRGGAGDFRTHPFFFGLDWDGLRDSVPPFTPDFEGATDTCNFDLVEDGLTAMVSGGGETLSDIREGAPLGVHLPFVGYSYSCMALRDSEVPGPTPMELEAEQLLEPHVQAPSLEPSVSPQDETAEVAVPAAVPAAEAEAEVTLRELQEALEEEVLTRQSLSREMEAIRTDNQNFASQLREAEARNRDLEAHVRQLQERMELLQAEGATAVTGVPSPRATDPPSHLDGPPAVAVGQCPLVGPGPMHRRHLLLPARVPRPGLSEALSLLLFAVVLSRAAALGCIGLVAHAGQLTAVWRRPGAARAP
Protocol: as §1, §2

[5] = molecular target: T4, NEK2(h) (Homo sapiens, UniProt P51955)
T4 sequence (P51955 1-445): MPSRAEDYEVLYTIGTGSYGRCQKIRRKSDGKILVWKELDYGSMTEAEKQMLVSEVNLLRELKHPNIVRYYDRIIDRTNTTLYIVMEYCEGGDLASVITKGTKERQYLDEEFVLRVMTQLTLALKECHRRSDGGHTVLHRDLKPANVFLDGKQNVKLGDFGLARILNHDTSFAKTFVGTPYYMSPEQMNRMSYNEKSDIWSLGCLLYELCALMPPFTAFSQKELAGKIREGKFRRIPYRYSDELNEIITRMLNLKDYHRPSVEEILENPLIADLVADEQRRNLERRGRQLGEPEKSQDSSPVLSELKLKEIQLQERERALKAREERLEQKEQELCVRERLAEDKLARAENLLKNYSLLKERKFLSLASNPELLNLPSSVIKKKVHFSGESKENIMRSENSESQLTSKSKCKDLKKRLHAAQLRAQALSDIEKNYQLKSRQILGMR
Protocol: as §1, §2

Sequence | SAPK4(h) % activity [1] | ASK1(h) % activity [2] | KDR(h) % activity [3] | DMPK(h) % activity [4] | NEK2(h) % activity [5]
FAKLAARLYRKALARQLGVAA [MMI-0300] | 96% | 80% | 101% | 59% | 78%
HRRIKAWLKKIKALARQLGVAA (Mammalian) [MMI-0500] | 48% | −4% | 15% | 12% | 0%
KAFAKLAARLYRKALARQLGVAA [MMI-0400] | 91% | 69% | 94% | 54% | 61%
YARAAARQARAKALNRQLGVA (Mammalian) [MMI-0200] |  | 101% | 110% | 66% | 97%
